± gives the standard deviation of the averaged measurements.
Experiments:
[1] = tested on: Saccharomyces cerevisiae; assay: protein stability index of tFT-peptide fusion (C-terminal peptide) (PSI (0-1 scale)); higher = more stable (slower turnover)
Protocol: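 MPS profiling in S. cerevisiae of the tFT-X12 degron library: putative degron peptides plus stable controls, 12 aa, fused to the C-terminus of a sfGFP-mCherry timer. Cells are FACS-sorted into 8 mCherry/sfGFP bins and deep-sequenced. PSI runs from 0 (unstable) to 1 (stable). Backgrounds are wild type, das1Δ and doa10Δ at 30 °C, and wild type, das1Δ, cdc34-1 and cdc53-1 at 37 °C; 2-3 technical replicates each.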

[2] = tested on: Saccharomyces cerevisiae; assay: as above; details: genetic background: wild type; temperature: 30 C
[3] = genetic background: cdc34-1, temperature: 37 C
[4] = genetic background: cdc53-1, temperature: 37 C
[5] = genetic background: das1 deletion, temperature: 30 C
[6] = genetic background: das1 deletion, temperature: 37 C
[7] = genetic background: doa10 deletion, temperature: 30 C
[8] = genetic background: wild type, temperature: 30 C
[9] = genetic background: wild type, temperature: 37 C
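Note: PSI is a weighted mean of sequencing reads over stability bins, variants kept only with over 10 reads, mCherry proximal and sfGFP distal, peptide attached via GGGS linker.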

Sequence | protein stability index [1, 3] | protein stability index [1, 4] | protein stability index [1, 5] | protein stability index [1, 6] | protein stability index [1, 7] | protein stability index [1, 8] | protein stability index [1, 9] | protein stability index [2]
SSLAKFQLISTY | 0.429 ± 0.0045 | 0.464 ± 0.011 | 0.316 ± 0.04 | 0.508 ± 0.049 | 0.267 ± 0.003 | 0.305 ± 0.016 | 0.46 ± 0.0088 | 0.394 ± 0.017
SVFSFCLCVGVV | 0.285 ± 0.0083 | 0.363 ± 0.076 | 0.266 ± 0.028 | 0.402 ± 0.011 | 0.213 ± 0.014 | 0.253 ± 0.033 | 0.358 ± 0.0064 | 0.294 ± 0.066
SVFWCFHVLFWS | 0.425 ± 0.039 | 0.4971 ± 0.0027 | 0.395 ± 0.025 | 0.5448 ± 0.0013 | 0.327 ± 0.011 | 0.345 ± 0.022 | 0.4926 ± 0.0049 | 0.39 ± 0.0011
SVLCLFSRLRSV | 0.625 ± 0.022 | 0.7308 ± 0.0022 | 0.638 ± 0.015 | 0.736 ± 0.0017 | 0.17 ± 0.0041 | 0.19 ± 0.032 | 0.383 ± 0.011 | 0.354 ± 0.069
SVPIAFYLLFFQ | 0.557 ± 0.0081 | 0.605 ± 0.027 | 0.458 ± 0.021 | 0.648 ± 0.013 | 0.434 ± 0.013 | 0.456 ± 0.016 | 0.575 ± 0.016 | 0.464 ± 0.021
SVSQTSILDSRL | 0.7109 ± 0.0043 | 0.756 ± 0.022 | 0.668 ± 0.012 | 0.74121 ± 0.00058 | 0.667 ± 0.018 | 0.675 ± 0.012 | 0.7313 ± 0.0043 | 0.71 ± 0.0074
SVVRCWVLLGVA | 0.121 ± 0.047 | 0.157 ± 0.028 | 0.198 ± 0.013 | 0.303 ± 0.0057 | 0.135 ± 0.0021 | 0.164 ± 0.026 | 0.2377 ± 0.0011 | 0.276 ± 0.024
SWELKWVYARVV | 0.374 ± 0.0097 | 0.5602 ± 0.0046 | 0.516 ± 0.02 | 0.674 ± 0.017 | 0.093 ± 0.0033 | 0.0851 ± 0.0075 | 0.0902 ± 0.0089 | 0.131 ± 0.005
SYALGNVVGGSL | 0.675 ± 0.045 | 0.75 ± 0.015 | 0.637 ± 0.018 | 0.748 ± 0.014 | 0.631 ± 0.025 | 0.645 ± 0.0065 | 0.721 ± 0.022 | 0.72 ± 0.013
TCPFTIHRLKVG | 0.63 ± 0.01 | 0.7483 ± 0.0035 | 0.617 ± 0.017 | 0.7458 ± 0.0033 | 0.118 ± 0.018 | 0.137 ± 0.028 | 0.218 ± 0.012 | 0.238 ± 0.077
TEHIIAFKASVN | 0.546 ± 0.0031 | 0.7284 ± 0.0037 | 0.626 ± 0.033 | 0.71 ± 0.01 | 0.0901 ± 0.025 | 0.104 ± 0.024 | 0.153 ± 0.028 | 0.214 ± 0.02
TFRVLFSVALLV | 0.172 ± 0.0042 | 0.216 ± 0.0069 | 0.259 ± 0.024 | 0.3436 ± 0.0022 | 0.1804 ± 0.00079 | 0.182 ± 0.021 | 0.2319 ± 0.0022 | 0.212 ± 0.086
TGRLFVSLRVWY | 0.321 ± 0.0046 | 0.375 ± 0.055 | 0.295 ± 0.035 | 0.467 ± 0.0072 | 0.302 ± 0.015 | 0.305 ± 0.006 | 0.442 ± 0.0058 | 0.437 ± 0.038
TLPIWLRVLIFG | 0.341 ± 0.066 | 0.342 ± 0.038 | 0.295 ± 0.026 | 0.456 ± 0.0082 | 0.2762 ± 0.002 | 0.29 ± 0.0033 | 0.426 ± 0.014 | 0.404 ± 0.032
TLRINSPFYFLS | 0.694 ± 0.058 | 0.703 ± 0.02 | 0.654 ± 0.019 | 0.7509 ± 0.0024 | 0.242 ± 0.011 | 0.282 ± 0.022 | 0.53 ± 0.021 | 0.419 ± 0.012
TLWWRQPFWGFG | 0.731 ± 0.038 | 0.802 ± 0.0045 | 0.659 ± 0.013 | 0.8 ± 0.021 | 0.673 ± 0.0095 | 0.702 ± 0.013 | 0.781 ± 0.017 | 0.722 ± 0.042
TSRRPFVLVMWL | 0.504 ± 0.0061 | 0.599 ± 0.0078 | 0.405 ± 0.04 | 0.6229 ± 0.0049 | 0.363 ± 0.011 | 0.388 ± 0.035 | 0.576 ± 0.027 | 0.485 ± 0.015
TTATLSFAICAV | 0.412 ± 0.01 | 0.455 ± 0.012 | 0.315 ± 0.022 | 0.473 ± 0.0063 | 0.27 ± 0.0051 | 0.325 ± 0.022 | 0.452 ± 0.014 | 0.4276 ± 0.0029
TYKHIVRVNKCE | 0.594 ± 0.031 | 0.684 ± 0.021 | 0.627 ± 0.033 | 0.727 ± 0.0073 | 0.179 ± 0.0066 | 0.184 ± 0.025 | 0.286 ± 0.0033 | 0.318 ± 0.04
